This assay concerns the target NGF (target protein of the anti-NGF antibodies mAb2 and mAb3). As to the kind of experiment: cell-based or functional assay.

Sequence of NGF (target protein of the anti-NGF antibodies mAb2 and mAb3) (P01138 122-241): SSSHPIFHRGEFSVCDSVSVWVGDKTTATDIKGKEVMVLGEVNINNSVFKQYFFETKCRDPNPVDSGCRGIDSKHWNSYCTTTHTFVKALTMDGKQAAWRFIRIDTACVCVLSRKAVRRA

B1: mAb3 (felinized anti-NGF, ZTS-768) IgG1a WT (antibody, V domains shown)
VH: DVQLVESGGDLVKPGGSLRLTCVASGFTYSNYWMHWVRQAPGKGLQWVARIDPYGGGTKHNEKFKRRFTISRDNAKNTLYLQMNSLKTEDTATYYCVRSGYDYYFDVWGQGTLVTVSS
VL: EIQMTQSPSSLSASPGDRVTITCRASENIYSFLAWYQQKPGKVPKLLIYNANTLAEGVPSRFSGSGSGTDFTLTISSLEPEDAATYYCQHHFGTPFTFGSGTKLEIKR
With B1, the “IC50 (cell based potency assay)” value is 0.036 nM.
